The Kd is the constant that tells how readily two partners part at equilibrium. Read a low Kd as higher affinity.

Results on 13 molecules are retold here after patent publication US20220195023A1.

First the molecules themselves.
B1: AB-007030 (antibody, V domains shown)
VH: QMQLVESGGGVVQPGRSLRLSCTASGFTFSTYAMHWVRQSPGQGLEWVAVISYHSTNKYYADSVRGRFTISRDNSKNTLYLQMNSLRAEDTAVYYCARDGYSSSFFDFWGQGTLVTVSS
VL: DIQMTQSPSTLSASVGDRVAITCRASQSISRWLAWYQQQPGKAPKLLMSGASVLESGVPSRFSGSGSGTEFTLTISSLQPDDFATYYCQHYNSYFVTFGQGTKVEIK
B2: AB-007031 (antibody, V domains shown)
VH: B1 VH with E46Q, A61E
VL: B1 VL with M48I
B3: AB-007036 (antibody, V domains shown)
VH: B1 VH with E46Q, H54D, A61E
VL: B1 VL
B4: AB-007032 (antibody, V domains shown)
VH: B1 VH with M2V, T23A, S40A, E46Q, A61E
VL: B1 VL with A20T, M48I
B5: AB-007034 (antibody, V domains shown)
VH: B1 VH with M2V, T23A, S40A
VL: B1 VL with A20T, M48I
B6: AB-007074 (antibody, V domains shown)
VH: B1 VH with T23A, S40A, E46Q, A61E
VL: B1 VL with A20T, F95Y
B7: AB-007028 (antibody, V domains shown)
VH: B1 VH with T23A, S40A, E46Q, A61E
VL: B1 VL with A20T
B8: AB-007035 (antibody, V domains shown)
VH: B1 VH with T31S, E46Q, A61E
VL: B1 VL
B9: AB-007071 (antibody, V domains shown)
VH: B1 VH with E46Q, A61E
VL: B1 VL with V53S
B10: AB-007072 (antibody, V domains shown)
VH: B1 VH with E46Q, A61E
VL: B1 VL with V53N
B11: AB-007033 (antibody, V domains shown)
VH: B1 VH with T23A, S40A
VL: B1 VL with A20T
B12: AB-007070 (antibody, V domains shown)
VH: B1 VH with E46Q, A61E
VL: B1 VL with G50A
B13: AB-007073 (antibody, V domains shown)
VH: B1 VH with E46Q, A61E
VL: B1 VL with Y94H

Changes are numbered by the printed parent chain.

The target of the first assay is (NPNA)3 (Plasmodium falciparum). The assay is described as follows: BLI, target on sensor.
B1 gave a Kd of 0.192 nM. This counts as sub-nanomolar.

On to B2, for which the Kd amounted to 0.003 nM.

Consider B3, for which the Kd amounted to 0.00382 nM. This Kd and that of the molecule before are within 1.5-fold of each other.

B4: the Kd was 0.169 nM.

For the molecule B5, the Kd worked out at 0.00372 nM.

For the molecule B6, the Kd came out at 0.206 nM.

Molecule B7 displayed a Kd of 0.0413 nM.

For B8, the Kd was determined as 0.322 nM. This Kd is about 7.8-fold higher than that of the molecule before.

As to B9, the dissociation constant Kd was 0.694 nM.

In turn, B10 yielded a Kd of 0.842 nM.

Take B11: the Kd was found to be 0.154 nM.

The molecule B12 gave a Kd of 0.68 nM. This Kd lies about 4.4-fold higher than the previous one.

The molecule B13 displayed a Kd of 0.326 nM.

In the next assay the target is (NVDP)3(NANP)2 (Plasmodium falciparum). The assay is described as follows: BLI, target on sensor. In general terms: In BLI a coated tip is dipped into the sample, and binding shifts an interference pattern.
In turn, B1 showed a Kd of 4.03 nM.

As for B2, the Kd was 3.5 nM.

As for B3, the Kd was 17.4 nM.

The molecule B4 showed a Kd of 6.68 nM.

Take B5: the Kd was 6.14 nM. This Kd and that of the molecule before are within 1.5-fold of each other.

For B6, the Kd turned out to be 7.96 nM.

The molecule B7 displayed a dissociation constant Kd of 4.26 nM.

For the molecule B8, the Kd was found to be 5.09 nM.

Take B9: the Kd stood at 11 nM.

B10 gave a Kd of 14.5 nM.

Take B11: the Kd stood at 3.47 nM. This Kd lies about 4.2-fold lower than the previous one.

In turn, B12 showed a Kd of 14.4 nM.

B13 gave a Kd of 18.1 nM.

The target in the next assay is NANPNVDP (Plasmodium falciparum). Briefly: BLI, target on sensor.
The molecule B1 had a Kd of 7.92 nM.

B2 displayed a Kd of 7.02 nM. This Kd and that of the molecule before are within 1.5-fold of each other.

Molecule B3 gave a Kd of 29.6 nM. Compared with the last molecule, the Kd is about 4.2-fold higher.

B4: the Kd was found to be 13.9 nM.

The molecule B5 registered a Kd of 11.5 nM.

In turn, B6 yielded a Kd of 10.2 nM.

B7 gave a Kd of 9.18 nM.

In turn, B8 yielded a Kd of 9.28 nM.

Consider B9, for which the Kd amounted to 12.9 nM.

B10: the Kd stood at 16.9 nM.

B11: the Kd was found to be 8.08 nM.

Molecule B12 showed a Kd of 19.8 nM.

As for B13, the Kd turned out to be 20.3 nM.

The next assay concerns the target (NANP)6 (Plasmodium falciparum). Briefly: BLI, target on sensor.
In turn, B1 displayed a Kd of 0.526 nM.

B2 had a Kd of 0.0569 nM.

As to B3, the Kd is 0.226 nM.

On to B4, for which the equilibrium dissociation constant (Kd) turned out to be 0.338 nM. The Kd values of the last two molecules are within 1.5-fold of each other.

Consider B5, for which the Kd came out at 0.0899 nM.

As to B6, the Kd is 0.601 nM.

Molecule B7 displayed a Kd of 0.501 nM.

With B8, the Kd was determined as 0.927 nM. Against the preceding molecule, the Kd is about 1.9-fold higher.

B9 returned a Kd of 1.66 nM.

The molecule B10 gave a Kd of 1.65 nM. This Kd and that of the molecule before are within 1.5-fold of each other.

In turn, B11 displayed an equilibrium dissociation constant (Kd) of 0.303 nM.

Molecule B12 registered a Kd of 0.834 nM.

Molecule B13 showed a Kd of 0.627 nM.

A further assay addresses … (Plasmodium falciparum). The assay is described as follows: BLI, target on sensor.
B1 had a Kd of 2.84 nM.

With B2, the Kd worked out at 2.89 nM. This Kd and that of the molecule before are within 1.5-fold of each other.

Take B3: the Kd was determined as 16.9 nM.

As for B4, the dissociation constant (Kd) is 6.42 nM.

Regarding B5, the Kd was found to be 5.44 nM.

As for B6, the Kd amounted to 6.05 nM. This Kd and that of the molecule before are within 1.5-fold of each other.

As for B7, the Kd was 2.93 nM.

In turn, B8 yielded a dissociation constant (Kd) of 2.61 nM.

The molecule B9 came in with a Kd of 10.4 nM.

In turn, B10 registered a Kd of 15.5 nM. This Kd and that of the molecule before are within 1.5-fold of each other.

B11 gave an equilibrium dissociation constant (Kd) of 2.62 nM.

With B12, the Kd came out at 15.5 nM.

As for B13, the Kd came to 17.9 nM.

The target of another assay is (NPNA)3 (Plasmodium falciparum). The assay is described as follows: SPR, antibody on chip. Background: In SPR one partner is held on a chip, and binding of the other changes the refractive index at the surface.
As for B1, the Kd stood at 6.88 nM.

Molecule B2 displayed a Kd of 8.02 nM.

As to B3, the Kd amounted to 33.5 nM. Against the preceding molecule, the Kd is about 4.2-fold higher.

Take B4: the Kd is 13.6 nM.

B5 had a Kd of 17 nM. The Kd values of the last two molecules are within 1.5-fold of each other.

As to B6, the Kd was determined as 8.94 nM.

The molecule B7 registered a Kd of 5.37 nM.

As for B8, the Kd worked out at 5.73 nM.

With B9, the Kd came to 10.2 nM.

Take B10: the Kd was determined as 73.9 nM.

The molecule B11 came in with a Kd of 8.02 nM. This Kd lies about 9.2-fold lower than the previous one.

For B12, the Kd was determined as 80.3 nM. This Kd is about 10-fold higher than that of the molecule before.

B13 showed a dissociation constant (Kd) of 72 nM.

For another assay, the target named is (NVDP)3(NANP)2 (Plasmodium falciparum). The assay is described as follows: SPR, antibody on chip.
Turning to B1, the Kd came to 2.57 µM.

The molecule B2 registered a Kd of 2.59 µM. The Kd values of the last two molecules are within 1.5-fold of each other.

Regarding B3, the Kd came out at 16.7 µM.

B4 displayed a Kd of 6.54 µM.

For the molecule B5, the Kd was determined as 6.71 µM.

B6: the Kd stood at 3.92 µM.

Consider B7, for which the Kd came to 2.35 µM.

B8 gave a Kd of 2.69 µM. The Kd values of the last two molecules are within 1.5-fold of each other.

As for B9, the Kd worked out at 4.87 µM. Compared with the last molecule, the Kd is about 1.8-fold higher.

As for B10, the Kd was 13.8 µM.

The molecule B11 gave a Kd of 2.68 µM.

B12 registered a Kd of 11.6 µM.

B13 returned a Kd of 19.5 µM. This Kd is about 1.7-fold higher than that of the molecule before.

A further assay deals with (NANP)6 (Plasmodium falciparum). The assay is described as follows: SPR, antibody on chip.
For B1, the Kd turned out to be 0.0537 nM.

B2 showed a Kd of 0.0384 nM. This Kd and that of the molecule before are within 1.5-fold of each other.

For the molecule B3, the Kd came out at 0.0466 nM.

B4 showed a Kd of 1.96 nM.

In the case of B5, the Kd is 0.932 nM.

B6 had a Kd of 0.665 nM.

B7: the Kd is 0.166 nM. Against the preceding molecule, the Kd is about 4-fold lower.

For B8, the Kd was determined as 0.757 nM.

For B9, the Kd came to 0.433 nM.

For the molecule B10, the Kd is 0.0376 nM.

Molecule B11 had a Kd of 0.0631 nM.

B12 showed a Kd of 0.0786 nM. This Kd and that of the molecule before are within 1.5-fold of each other.

B13 displayed a Kd of 0.871 nM.

Another assay deals with … (Plasmodium falciparum). Briefly: SPR, antibody on chip.
The molecule B1 gave an equilibrium dissociation constant (Kd) of 6.52 µM.

In turn, B2 displayed a Kd of 5.21 µM.

For the molecule B3, the Kd worked out at 17.5 µM.

In turn, B4 returned a Kd of 4.83 µM.

Molecule B5 came in with a Kd of 24.1 µM.

With B6, the Kd was 12.8 µM.

On to B7, for which the Kd is 15.9 µM.

Consider B8, for which the Kd is 9.75 µM.

As to B9, the Kd was found to be 23.8 µM.

With B10, the Kd was 38.7 µM.

B11 yielded a Kd of 2.58 µM.

Turning to B12, the Kd was found to be 65.3 µM.

B13 had a Kd of 16.5 µM. Against the preceding molecule, the Kd is about 4-fold lower.
